From patent US20260137802A1 (CRISPR THERAPEUTICS, published 2026) come the findings set out here.

Test [1] deals with T1, human CD117 on cells (SKMEL-3 cells, CD34+ HSC) (human, UniProt P10721 26-976).
T1 construct: whole, on cells; also called CD117 on cell surfaces; CD117+ cells
In words: flow cytometry, CD34+ HSC, monomeric Fc. For orientation: Flow cytometry measures light scatter and fluorescence of single cells or particles in a stream.

The target of test [2] is T2, human CD117 ectodomain (human, UniProt P10721 26-524, biotinylated (BirA co-expression) where captured on streptavidin biosensors).
T2 construct: extracellular domain; also called cKIT; full length AviTagged CD117 ectodomain; not shown: C-terminal AviTag or His tag
T2 sequence (P10721 26-524): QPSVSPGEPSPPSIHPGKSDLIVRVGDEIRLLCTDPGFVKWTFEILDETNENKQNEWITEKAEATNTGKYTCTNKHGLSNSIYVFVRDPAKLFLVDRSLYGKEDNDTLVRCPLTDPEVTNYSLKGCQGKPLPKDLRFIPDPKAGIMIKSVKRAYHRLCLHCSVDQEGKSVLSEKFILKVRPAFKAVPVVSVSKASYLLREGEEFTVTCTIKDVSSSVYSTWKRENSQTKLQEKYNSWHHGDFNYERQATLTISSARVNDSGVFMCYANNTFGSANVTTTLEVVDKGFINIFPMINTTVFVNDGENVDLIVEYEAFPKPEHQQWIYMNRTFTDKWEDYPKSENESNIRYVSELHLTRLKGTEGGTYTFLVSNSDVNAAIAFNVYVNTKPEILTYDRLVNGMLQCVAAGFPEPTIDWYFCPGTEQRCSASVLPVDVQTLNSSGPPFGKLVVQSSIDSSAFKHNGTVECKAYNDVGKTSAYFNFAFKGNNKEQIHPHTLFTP
The test can be described thus: ELISA, human CD117, monovalent Fc fusion.

Test [3] has as its target T1, human CD117 on cells (SKMEL-3 cells, …). In words: flow cytometry, skMEL-3 cells, monomeric Fc.
The target of test [4] is cynomolgus monkey CD117 ectodomain (cynomolgus monkey). In words: BLI (Octet), biotinylated ectodomain on SA biosensor, 1:1 global fit, monomeric Fc. (In general: Biolayer interferometry detects binding as a change in optical thickness at a sensor tip.)
The target in test [5] is T2, human CD117 ectodomain. The description is as above. From the text:
Pre-equilibrated streptavidin biosensors (SA, from Sartorius) were coated with biotinylated CD117 ectodomain by dipping the biosensors into wells containing an optimized dilution of human or cyno CD117 ectodomain. After re-equilibrating the biosensor tips in assay buffer, the biosensors were dipped into supernatant containing the VHH antibodies to allow association between the antibodies and the CD117 ectodomain. Finally, the biosensors were dipped into the assay buffer. The VHH antibodies disassociated from the CD117 ectodomain if association occurred. The association and dissociation of each VHH antibody was characterized qualitatively to identify VHHs that could bind both human and cyno CD117 ectodomains.
For example, kinetics parameters of the top VHH antibodies for binding to human CD117 and cynomolgus monkey CD117 ectodomain were obtained from the Octet® analysis by Biolayer Interferometry as described above. A minimum of three concentrations of purified VHH antibodies were tested per ectodomain target. The Octet® software was used to perform a global kinetic fit across all concentrations using a 1:1 binding model. This allowed determination of the kinetic parameters, association rate (kₒₙ), dissociation rate (koff) and equilibrium constant (KD) for the 9 antibodies of interest. Total chi-squared (X²) was also examined to determine the goodness of fit for the software's kinetic model.

In test [6] the target is T3, truncated CD117 ectodomain, Domain 1 (UniProt P10721 26-112, limits assumed, biotinylated).
T3 construct: domain: Domain 1; not shown: AviTag
T3 sequence (P10721 26-112 limits assumed): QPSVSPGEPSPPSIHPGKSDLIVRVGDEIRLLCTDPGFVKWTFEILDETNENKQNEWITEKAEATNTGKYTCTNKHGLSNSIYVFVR
In words: BLI, truncated ectodomain on SA biosensor. As for the experimental part: (§1) To identify the approximate binding epitopes of the VHH antibodies, truncated ectodomains were expressed as fusion polypeptides with an AviTag. Additionally, biotin is added to the protein during expression to allow capture of the material onto Streptavidin-coated (SA) biosensors. SA biosensors (Sartorius) were incubated with one of the truncated ectodomains. Full length CD117 ectodomain was used as a control. […] Except for P29 and P37, all others bind Domains 1-2 and Domains 1-3. Except for P37, all others bind Domains 1-4.

The target in test [7] is T4, truncated CD117 ectodomain, Domains 1-2 (UniProt P10721 26-208, limits assumed, biotinylated).
T4 construct: domain: Domains 1-2; not shown: AviTag
T4 sequence (P10721 26-208 limits assumed): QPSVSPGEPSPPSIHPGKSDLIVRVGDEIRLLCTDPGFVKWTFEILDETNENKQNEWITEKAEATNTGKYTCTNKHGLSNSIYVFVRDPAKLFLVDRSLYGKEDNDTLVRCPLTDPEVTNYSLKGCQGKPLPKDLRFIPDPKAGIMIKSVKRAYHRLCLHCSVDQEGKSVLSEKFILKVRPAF
The test can be described thus: BLI, truncated ectodomain on SA biosensor. The method, then: as §1

In test [8] the target is T5, truncated CD117 ectodomain, Domains 1-3 (UniProt P10721 26-311, limits assumed, biotinylated).
T5 construct: domain: Domains 1-3; not shown: AviTag
T5 sequence (P10721 26-311 limits assumed): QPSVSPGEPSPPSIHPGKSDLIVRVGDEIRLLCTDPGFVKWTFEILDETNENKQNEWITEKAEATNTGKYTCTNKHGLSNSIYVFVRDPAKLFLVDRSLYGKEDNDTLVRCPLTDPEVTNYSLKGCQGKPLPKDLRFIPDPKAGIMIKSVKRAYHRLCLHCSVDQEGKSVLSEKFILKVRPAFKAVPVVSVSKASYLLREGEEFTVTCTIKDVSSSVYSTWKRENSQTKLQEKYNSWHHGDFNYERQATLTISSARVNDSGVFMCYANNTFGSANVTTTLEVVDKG
The test can be described thus: BLI, truncated ectodomain on SA biosensor. The method, then:
as §1

The target of test [9] is T6, truncated CD117 ectodomain, Domains 1-4 (UniProt P10721 26-410, limits assumed, biotinylated).
T6 construct: domain: Domains 1-4; not shown: AviTag
T6 sequence (P10721 26-410 limits assumed): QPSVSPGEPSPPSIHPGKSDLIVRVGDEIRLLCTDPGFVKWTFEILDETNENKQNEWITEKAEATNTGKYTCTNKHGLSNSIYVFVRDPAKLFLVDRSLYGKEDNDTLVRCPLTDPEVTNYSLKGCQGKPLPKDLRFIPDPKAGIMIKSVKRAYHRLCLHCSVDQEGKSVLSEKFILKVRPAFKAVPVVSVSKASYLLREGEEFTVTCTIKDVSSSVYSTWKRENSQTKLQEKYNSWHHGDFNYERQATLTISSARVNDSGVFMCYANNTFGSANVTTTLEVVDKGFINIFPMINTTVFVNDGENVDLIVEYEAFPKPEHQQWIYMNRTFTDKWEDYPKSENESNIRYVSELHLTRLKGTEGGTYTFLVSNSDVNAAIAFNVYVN
In words: BLI, truncated ectodomain on SA biosensor. The method, then: as §1

T1 sequence (P10721 26-976): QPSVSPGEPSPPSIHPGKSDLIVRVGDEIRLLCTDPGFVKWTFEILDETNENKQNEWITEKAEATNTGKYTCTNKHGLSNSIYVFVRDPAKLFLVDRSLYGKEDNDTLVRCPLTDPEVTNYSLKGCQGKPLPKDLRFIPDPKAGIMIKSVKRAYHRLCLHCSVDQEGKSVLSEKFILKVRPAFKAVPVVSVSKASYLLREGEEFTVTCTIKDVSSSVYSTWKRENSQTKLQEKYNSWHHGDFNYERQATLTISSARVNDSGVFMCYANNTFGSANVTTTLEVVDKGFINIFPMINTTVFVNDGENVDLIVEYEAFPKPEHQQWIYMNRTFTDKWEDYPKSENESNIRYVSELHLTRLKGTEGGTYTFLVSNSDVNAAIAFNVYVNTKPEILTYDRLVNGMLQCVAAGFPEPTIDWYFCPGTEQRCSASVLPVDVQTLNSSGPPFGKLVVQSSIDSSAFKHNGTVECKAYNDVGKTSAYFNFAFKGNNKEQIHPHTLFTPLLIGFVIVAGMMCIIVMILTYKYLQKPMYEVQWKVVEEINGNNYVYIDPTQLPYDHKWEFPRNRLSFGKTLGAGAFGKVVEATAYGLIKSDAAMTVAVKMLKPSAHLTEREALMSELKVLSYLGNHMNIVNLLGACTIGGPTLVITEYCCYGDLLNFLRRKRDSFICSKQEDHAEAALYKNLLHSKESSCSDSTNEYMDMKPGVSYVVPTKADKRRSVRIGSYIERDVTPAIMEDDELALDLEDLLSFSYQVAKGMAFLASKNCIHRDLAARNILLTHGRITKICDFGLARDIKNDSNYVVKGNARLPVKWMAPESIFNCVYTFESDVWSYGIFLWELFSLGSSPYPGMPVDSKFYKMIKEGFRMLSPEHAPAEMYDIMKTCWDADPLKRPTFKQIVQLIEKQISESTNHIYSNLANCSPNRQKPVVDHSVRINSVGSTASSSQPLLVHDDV

B1: P-0038 (Fc fusion)
chain: EVQLVESGGGLVQAGGSLRLSCAASGRTSGSYVMGWFRQAPGKEREFVAAISWSAGMTYYADSVKGRFTISRDNAKNTVYLQMNSLKPEDTAVYYCAADQRGVPAYYSDYALYDYWGQGTQVTVSS
notes: Any second Fc chain without VHH is not described in the text; also called monovalent form of P38; not shown: Fc fragment
The EC50 is the concentration at which the effect is half-maximal. Usually Kd stands for a measure of binding affinity in units of concentration. Regarding B1, the EC50 in [1] and in test [3] was 10 nM each time. In addition, the Kd with human CD117 ectodomain [2] was found to be 1 nM; in [4], 19 nM; in the test with human CD117 ectodomain [5] it was 8.85 nM.

B2: P-0027 (Fc fusion)
chain: EVQLVESGGGLVRAGGSLRLSCAASGRTTFSTYWLGWFRQAPGKNREFVAAISWSAGMAYYQDSKGRFTISRDNTKNTAYLQMNSLQPEDTAVYYCAAGRFHPIRVDTALYWAQGTQVTVSS
notes: Any second Fc chain without VHH is not described in the text; also called monovalent form of P27; not shown: Fc fragment
As for B2, the EC50 in [1] and in test [3] was 10 nM throughout. For the same molecule, the Kd amounted to 1.32 nM with human CD117 ectodomain [2], 8.11 nM in test [4] and 44.7 nM with human CD117 ectodomain [5].

B3: P-0037 (Fc fusion)
chain: QVQLVESGGGLVQAGDSLRLSCAVSGRTLSNYFMAWLRQAPGKEREFVAAIHWSLGSTYYQDPVKGRFTISRDKAKNTVYLQMNTLKPEDTATYICAAGQHLSGLGGSAWSIEGDYWGQGTQVTVSS
notes: Any second Fc chain without VHH is not described in the text; also called monovalent form of P37; not shown: Fc fragment
As to B3, the results for the EC50 in test [1] and in [3] were more than 50 nM and 20 nM, respectively. Also, the dissociation constant (Kd) is 0.97 nM with human CD117 ectodomain [2], 25 nM in [4] and 28 nM in the test with human CD117 ectodomain [5].

B4: P37 (VHH)
VHH: QVQLVESGGGLVQAGDSLRLSCAVSGRTLSNYFMAWLRQAPGKEREFVAAIHWSLGSTYYQDPVKGRFTISRDKAKNTVYLQMNTLKPEDTATYICAAGQHLSGLGGSAWSIEGDYWGQGTQVTVSS
notes: also called P37/P58; anti-CD117 VHH P37
For B4, the binding result in [6], in test [7], in test [8] and in test [9] was “no binding” each time.

B5: P-0031 (Fc fusion)
chain: EVQLVESGGGLVRAGGSLRLSCAASGRTFTYDARAWFRQAPGKEREFVAAISWSGGSTYYPNSMKGRFTISRDNAKNTVYLQMNSLKPEDTAVYYCAADESFPAYYSDYALYRYWGQGTLVTVSS
notes: Any second Fc chain without VHH is not described in the text; also called monovalent form of P31; not shown: Fc fragment
For B5, the EC50 is 4 nM in test [1] and 3 nM in [3]. Also, the results for the Kd (with human CD117 ectodomain [2]; in test [4]; with human CD117 ectodomain [5]) were 0.52 nM, 1.62 nM and 7.42 nM, respectively.

B6: P-0010 (Fc fusion)
chain: QVQLVESGGGLVQAGGSLRLSCVASGRTFSSYAMGWFRQGPGKEREFAAAILSNGLTTYYADSVKGRFTISRDNAKDTVYLQMNSLKPEDTANYYCAAAFTPEFRDGGIWDDASVDYWGQGTQVTVSS
notes: Any second Fc chain without VHH is not described in the text; also called monovalent form of P10; not shown: Fc fragment
In the case of B6, the EC50 in test [1] and in test [3] was 2 nM in each case. The Kd with human CD117 ectodomain [2] is 0.28 nM; in test [4] it was 54.9 nM; with human CD117 ectodomain [5] it was 16.5 nM.

B7: P-0035 (Fc fusion)
chain: QVQLVESGGGLVQAGGSLRLSCAASGGTFSIYPVGWFRQAPGKQREFVAAIGWSASGTYYGDSVEGRFTVSRDNARSTVYLRMSSLKPDDTAVYYCAAASGSNWRLGAIDEYDSWGQGTQVTVSS
notes: Any second Fc chain without VHH is not described in the text; also called monovalent form of P35; not shown: Fc fragment
As to B7, the EC50 worked out at 30 nM in test [1] and 10 nM in test [3]. Also, the figures for the Kd (in the test with human CD117 ectodomain [2]; in test [4]; with human CD117 ectodomain [5]) were 1.91 nM, 7.02 nM and 2.89 nM, respectively.

B8: P29 (VHH)
VHH: QVHLVESGGGLVQAGGSLGLSCAASGHTFSNYAMGWFRQAPGKEREFVAAISWSGGSTLYADSVKGRFTISRDNGENTVYLQMNSLKPEDTAVYYCALDSTGVYGTGYVSSRKGRYEYWGQGTLVTVSS
notes: also called P29/P54; anti-CD117 VHH P29
In the case of B8, the binding result in [6], in test [7] and in test [8] was “no binding” throughout.
